The source of these data is US20240317847A1 (Bayer, published 2024).

Assay [1] concerns the target T1, human IL-11 (human, UniProt P20809 22-199).
T1 construct: Invigate recombinant protein; biotinylated when immobilized in the Di-complex ELISA; also called hIL11; hIL-11
T1 sequence: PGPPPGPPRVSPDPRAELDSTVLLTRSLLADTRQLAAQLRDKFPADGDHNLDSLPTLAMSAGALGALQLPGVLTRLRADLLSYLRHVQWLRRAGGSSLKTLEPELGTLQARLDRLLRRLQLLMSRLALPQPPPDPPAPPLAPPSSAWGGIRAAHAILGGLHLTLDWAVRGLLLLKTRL
The assay is described as follows: Tri-complex ELISA, hIL-11 + mIL-11Ra-Fc + hgp130-Fc, inhibition of complex formation. (ELISA stands for enzyme-linked immunosorbent assay.)

The target of assay [2] is T2, human IL-11 (Invigate, e.g., lot #C121021-19) (human, UniProt P20809 22-199).
T2 construct: Bought protein; also called hIL-11; hIL11
T2 sequence: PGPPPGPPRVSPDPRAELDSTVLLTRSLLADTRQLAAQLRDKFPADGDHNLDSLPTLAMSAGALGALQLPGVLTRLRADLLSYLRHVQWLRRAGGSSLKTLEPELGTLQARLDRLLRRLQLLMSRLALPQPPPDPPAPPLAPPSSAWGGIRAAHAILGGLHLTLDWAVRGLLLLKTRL
The assay is described as follows: Tri-complex ELISA: antibody titrated against 8 nM human IL-11, 2 nM human gp130-human-Fc and 2 nM murine IL11RA-murine-Fc. How it is done: (§1) In the Tri-complex ELISA format IL-11 antibodies are tested for their ability to inhibit the formation of a complex consisting of murine or human gp130-Fc fusion protein, with murine or human IL-11, and a murine IL11RA-Fc fusion protein. The assay format was adapted according to FIG. 18 (a, b), depending on whether murine or human IL-11 IgG antibodies were tested.
The assay was performed using High Binding microtiter plates (Greiner, #781077). In a first step, 25 μl of goat anti human IgG (Sigma, #12136), diluted 1:1000 in coating buffer (Candor, #121125) was coated on the plate at 4° C. overnight. Next day, the plate was washed one time with 50 μl PBST and then blocked with 50 μl SmartBlock (Candor, #113125) for one hour at room temperature (RT). […] After three additional washes of the coated and blocked microtiter plate with PBS-T, 25 μl of each mixture were added and the assay plate was incubated for one hour at room temperature. After three additional washes, anti-mouse-gp130 biotinylated antibody (R&D, #BAF468) or anti-human gp130 biotinylated antibody (R&D, #BAF228), both 1:1000 in 10% SmartBlock PBS-T, was added and incubated for 1 hour at RT. After three additional washes, a Streptavidin-Peroxidase conjugate (Sigma, #S5512) 1:1000 in SmartBlock PBS-T was added and incubated for one hour at room temperature. After a final three washes, AmplexRed (Fisher Scientific, A12222), 1/1000 in PBS, 0,003% H₂O₂, was added as substrate and incubated for 15 min at RT in the dark. Then, the fluorescence was measured with a plate reader at 535/595 nm. Signals from dose responses were used to calculate IC50 values using GraphPad Prism software.

Assay [3] deals with T3, human IL2Ra (human, UniProt P01589 22-240, limits assumed).
T3 construct: coated on the ELISA plate; also called IL-2 receptor alpha
T3 sequence (looked up): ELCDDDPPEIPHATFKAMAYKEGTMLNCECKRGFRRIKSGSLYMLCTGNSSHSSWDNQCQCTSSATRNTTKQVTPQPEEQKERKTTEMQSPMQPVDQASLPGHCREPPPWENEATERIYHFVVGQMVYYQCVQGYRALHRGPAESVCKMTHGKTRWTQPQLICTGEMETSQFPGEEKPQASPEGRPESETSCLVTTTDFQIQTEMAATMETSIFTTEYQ
Put plainly: ELISA on coated IL2Ra, signal ratio to isotype control at 1E-07 M antibody. How it is done: (§2) IL2RA (Peprotech, Germany, #200-02RC) was coated at 1 or 0 μg/ml (buffer only control) in 30 μl coating buffer (Candor, #113500) per well on a 384 well microtiter plate (Maxisorb, Nunc, #460518) over night at 4-8° C. After two washes with 50 μl/well washing buffer (PBS+0.05% Tween, pH 7.4), the plates were incubated for two hours at room temperature with 50 μl/well SmartBlock (Candor, #113500). After blocking, the plates were washed three times with washing buffer. Then, a dilution series of the respective antibody (1E-7 [M] down to 2E-13 [M]) in PBS+0.05% Tween, 10% SmartBlock were added in 30 μl to the microtiter plate and incubated for 90 min at room temperature. After three additional washes, 30 μl anti mouse IgG HRP-conjugated antibody (Biotechne, HAF007), diluted 1:1000 in PBS+0.05% Tween (pH 7.4), were added per well and incubated for one hour. After three additional washes, a mixture of Amplex red (Invitrogen, #12222, 10 mM stock solution in DMSO) 1:1000 diluted in PBS and H2O2 (30%, Merck, #107209)) diluted 1:10000 in PBS were added as substrate with 30 μl per well and incubated for 20 min in the dark. Relative fluorescence was measured with a microtiter plate reader at 535/590 nm.
Bispecific antibodies were subjected to the experimental assay procedure described in Example 20. Ratios of the signals generated at an antibody concentration of 1E-07 [M] by the respective bispecific antibody versus those of an isotype control antibody were calculated and are shown in Table E29. The bispecific antibodies show no binding to IL-2 Ra.

Another assay deals with T4, murine IL-11 (mouse, UniProt P47873 22-199).
T4 construct: Invigate recombinant protein; biotinylated when immobilized in the Di-complex ELISA; also called mIL11; mIL-11
T4 sequence: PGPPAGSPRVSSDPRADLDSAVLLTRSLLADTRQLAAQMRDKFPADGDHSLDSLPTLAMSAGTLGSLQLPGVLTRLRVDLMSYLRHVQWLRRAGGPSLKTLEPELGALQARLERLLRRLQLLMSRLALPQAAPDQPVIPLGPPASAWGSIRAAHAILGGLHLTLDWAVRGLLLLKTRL
Put plainly: Tri-complex ELISA, mIL-11 + mIL-11Ra-Fc + mgp130-Fc, inhibition of complex formation. How it is done:
as §1
(§3) Bispecific antibodies were subjected to the experimental assay procedure described in Example 19 and IC50 [M], respectively efficacy (%) were calculated accordingly.

The target of assay [4] is T3, human IL2Ra. The assay is described as follows: ELISA on coated IL2Ra, signal ratio to isotype control. How it is done: as §2, with “After three additional washes, a mixture of Amplex red (Invitrogen, #12222, 10 mM stock solution in DMSO) 1:1000 diluted in PBS and H2O2 (30%, Merck, #107209)) diluted 1:10000 in PBS were added as substrate with 30 μl per well and incubated for 20 min in the dark.” left out
Bispecific antibodies were subjected to the experimental assay procedure described in Example 20. Ratios of the signals generated at an antibody concentration of 1E-07 [M] by the respective bispecific antibody versus those of an isotype control antibody were calculated and are shown in Table E29. […]

Assay [5] has as its target T1, human IL-11. Put plainly: Tri-complex ELISA, hIL-11 + mIL-11Ra-Fc + hgp130-Fc, inhibition of complex formation. How it is done: as §1, §3
The source holds these as a separate data set.

For orientation: IC50 means the concentration that gives 50% inhibition.

Read-outs that look alike come from different tables or passages of the source.

B1: TPP-29519 (antibody, mouse IgG1)
heavy: QVQLVESGGGVVQPGRSLRLSCAASGFTFSHYDMHWVRQAPGKGLEWVAVISYHGSVKFYADSVKGRFTISRDNSKNTLYLQMNSLRAEDTAVYYCARTPGFHFDYWGQGTLVTVSSAKTTPPSVYPLAPGSAAQTNSMVTLGCLVKGYFPEPVTVTWNSGSLSSGVHTFPAVLQSDLYTLSSSVTVPSSTWPSETVTCNVAHPASSTKVDKKIVPRDCGCKPCICTVPEVSSVFIFPPKPKDVLTITLTPKVTCVVVDISKDDPEVQFSWFVDDVEVHTAQTQPREEQFNSTFRSVSELPIMHQDWLNGKEFKCRVNSAAFPAPIEKTISKTKGRPKAPQVYTIPPPKEQMAKDKVSLTCMITDFFPEDITVEWQWNGQPAENYKNTQPIMDTDGSYFVYSKLNVQKSNWEAGNTFTCSVLHEGLHNHHTEKSLSHSPGK
light: QSVLTQPPSASGTPGQRVTISCSGSSSNIGSNYVSWYQQLPGTAPKLLIYYDDLRPSGVPDRFSGSKSGTSASLAISGLRSEDEADYYCSAWDDSLSGVVFGGGTKLTVLGQPKSSPSVTLFPPSSEELETNKATLVCTITDFYPGVVTVDWKVDGTPVTQGMETTQPSKQSNNKYMASSYLTLTARAWERHSSYSCQVTHEGHTVEKSLSRADCS
notes: mIgG1, Lambda
With B1, in the assay with human IL-11 [1], the “Efficacy (%)” value was found to be 81.3% and the IC50 stood at 2.4 nM.

B2: TPP-18087 (antibody, mouse IgG1, V domains shown)
VH: EVQLLESGGGLVQPGGSLRLSCAASGFTFSHYDMNWLRQAPGKGLEWVGVISYDGSNKFYADFVKGRFTISRDNSKNTLYLQMNSLRAEDTAVYYCARTPGSHFDYWGQGTLVTVSS
VL: QSVLTQPPSASGTPGQRVTISCSGSSSNIGNNAVNWYQQLPGTAPKLLIYYDDLLPSGVPDRFSGSKSGTSASLAISGLRSEDEADYYCSAWDDSLNGVVFGGGTKLTVLG
notes: mIgG1, Lambda
Consider B2, for which, in assay [2], the “Efficacy (%)” value is 60.4% and the half-inhibitory concentration (IC50) came to 55 nM.

B3: TPP-19528 (antibody, mouse IgG1, V domains shown)
VH: EVQLLESGGGLVQPGGSLRLSCAASGFTFSIYAMSWVRQAPGKGLEWVSSISDTGDRTYYADSVKGRFTISRDNSKNTLYLQMNSLRAEDTAVYYCARSNWGSLDYWGQGTLVTVSS
VL: QSVLTQPPSASGTPGQRVTISCSGSSSNIGSNYVYWYQQLPGTAPKLLIYYDDLLPSGVPDRFSGSKSGTSASLAISGLRSEDEADYYCAAWDDSLSGRVFGGGTKLTVLG
notes: mIgG1, Lambda
On to B3, for which, in assay [2], the “Efficacy (%)” value worked out at 57% and 20 nM corresponded to half-maximal inhibition (IC50).

B4: TPP-29603 (bispecific antibody, IgG1)
chain 1: QVQLVESGGGVVQPGRSLRLSCAASGFTFSHYDMHWVRQAPGKGLEWVAVISYHGSVKFYADSVKGRFTISRDNSKNTLYLQMNSLRAEDTAVYYCARTPGFHFDYWGQGTLVTVSSGGGGSGGGGSGGGGSQSVLTQPPSASGTPGQRVTISCSGSSSNIGSNYVSWYQQLPGTAPKLLIYYDDLRPSGVPDRFSGSKSGTSASLAISGLRSEDEADYYCSAWDDSLSGVVFGGGTKLTVLGGGGSGGGGSGGGGSGVECPPCPAPPVAGPSVFIFPPKPKDVLTITLTPKVTCVVVDISKDDPEVQFSWFVDDVEVHTAQTQPREEQFNSTFRSVSELPIMHQDWLNGKEFKCRVNSAAFPAPIEKTISKTKGRPKAPQVYTIPPCKEQMAKDKVSLWCMITDFFPEDITVEWQWNGQPAENYKNTQPIMDTDGSYFVYSKLNVQKSNWEAGNTFTCSVLHEGLHNHHTEKSLSHSPGK
chain 2: EVQLLESGGGLVQPGGSLRLSCAASGFTFSSYGMHWVRQAPGKGLEWVAVISYDGSYKYYADSVKGRFTISRDNSKNTLYLQMNSLRAEDTAVYYCAAGVPDYWGQGTLVTVSSGGGGSGGGGSGGGGSQSVLTQPPSASGTPGQRVTISCSGSSSNIGSDYDVHWYQQLPGTAPKLLIYSNEERPSGVPDRFSGSKSGTSASLAISGLRSEDEADYYCSAWDSSLSGPVFGGGTKLTVLGGGGSGGGGSGGGGSGVECPPCPAPPVAGPSVFIFPPKPKDVLTITLTPKVTCVVVDISKDDPEVQFSWFVDDVEVHTAQTQPREEQFNSTFRSVSELPIMHQDWLNGKEFKCRVNSAAFPAPIEKTISKTKGRPKAPQVCTIPPPKEQMAKDKVSLSCAITDFFPEDITVEWQWNGQPAENYKNTQPIMDTDGSYFVVSKLNVQKSNWEAGNTFTCSVLHEGLHNHHTEKSLSHSPGK
notes: scFv-kih-mIgG1; bispecific comprising CDRs of TPP-29528 and TPP-29519
For the molecule B4, the “Ratio IL-2Ra Binding Signal Antibody/Isotype Control” value in the assay with human IL2Ra [3] is 1.9 ratio. In addition, in the assay with murine IL-11, the “Efficacy (%)” value is 98.5% and the IC50 came to 0.17 nM. The binding result in the assay with human IL2Ra [4] is given as “no binding (tested: 1E-07 M antibody)”. Besides, in the assay with human IL-11 [5], the “Efficacy (%)” value was 98.5% and the IC50 is 0.696 nM.

B5: TPP-29528 (antibody, mouse IgG1)
heavy: EVQLLESGGGLVQPGGSLRLSCAASGFTFSSYGMHWVRQAPGKGLEWVAVISYDGSYKYYADSVKGRFTISRDNSKNTLYLQMNSLRAEDTAVYYCAAGVPDYWGQGTLVTVSSAKTTPPSVYPLAPGSAAQTNSMVTLGCLVKGYFPEPVTVTWNSGSLSSGVHTFPAVLQSDLYTLSSSVTVPSSTWPSETVTCNVAHPASSTKVDKKIVPRDCGCKPCICTVPEVSSVFIFPPKPKDVLTITLTPKVTCVVVDISKDDPEVQFSWFVDDVEVHTAQTQPREEQFNSTFRSVSELPIMHQDWLNGKEFKCRVNSAAFPAPIEKTISKTKGRPKAPQVYTIPPPKEQMAKDKVSLTCMITDFFPEDITVEWQWNGQPAENYKNTQPIMDTDGSYFVYSKLNVQKSNWEAGNTFTCSVLHEGLHNHHTEKSLSHSPGK
light: QSVLTQPPSASGTPGQRVTISCSGSSSNIGSDYDVHWYQQLPGTAPKLLIYSNEERPSGVPDRFSGSKSGTSASLAISGLRSEDEADYYCSAWDSSLSGPVFGGGTKLTVLGQPKSSPSVTLFPPSSEELETNKATLVCTITDFYPGVVTVDWKVDGTPVTQGMETTQPSKQSNNKYMASSYLTLTARAWERHSSYSCQVTHEGHTVEKSLSRADCS
notes: mIgG1, Lambda
In the case of B5, in the assay with human IL-11 [1], the “Efficacy (%)” value was 94.7% and the IC50 turned out to be 1 nM.
